The target of test [1] is CarD T8C labelled with BODIPY-FL (Mycobacterium tuberculosis) (UniProt P9WJG3). The test can be described thus: fluorescence polarisation.
Test [2] concerns the target Mycobacterium tuberculosis RNA polymerase, wild type (Mycobacterium tuberculosis) (UniProt P9WGY9). The test can be described thus: fluorescence polarisation.

The values below come from publication PMC7718890, “High-throughput screening to discover inhibitors of the CarD·RNA polymerase protein–protein interaction in Mycobacterium tuberculosis” (Scientific Reports, 2020).

For the substance “Mycobacterium tuberculosis RNA polymerase, wild type (from UniProt P9WGY9 8-1140) (complex)”, the Kd – broadly, the constant that tells how readily two partners part at equilibrium – in test [1] is 65 nM. On to “Wild-type MTB CarD, unlabeled (from UniProt P9WJG3 1-162) (natural protein)”, for which, in test [2], the Ki (usually the equilibrium dissociation constant of an inhibitor or competing ligand from its target) amounted to 8 nM.
